In the supplement of paper PMC9170038:

Tested on: MS2 coat protein
Assay: apparent KD of MS2 coat protein; designed switch direction (-1 OFF switch, 1 ON switch): -1; higher = weaker reporter binding
Method in brief: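 SNAP-549-labelled MS2 coat protein was titrated, doubling from 0.7 or 1.5 nM to 3 µM, over designed RNA switches transcribed on Illumina chips by stalled E. coli RNA polymerase. Runs were done without input, with 200 uM small-molecule ligand, or with an oligonucleotide input. Apparent KD is the per-design median over clusters of curve-fitted normalised fluorescence.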

[1] = Eterna round: R95, input ligand: microRNA oligo, concentration not stated
[2] = Eterna round: R95, input ligand: FMN 200 uM
[3] = Eterna round: R95, input ligand: none
[4] = input ligand: microRNA oligo, concentration not stated

Sequence	apparent KD of MS2 coat protein [1]	apparent KD of MS2 coat protein (input ligand: FMN 200 uM)	apparent KD of MS2 coat protein (input ligand: none)	apparent KD of MS2 coat protein [2]	apparent KD of MS2 coat protein [3]	apparent KD of MS2 coat protein [4]
AAUAACAGAGGAUAUACUGUUUUAUGUGUUUAUUAUUUUAAACAUGAGGAUCACCCAUGUAGAAGGCUGAAUAA [JMF 13] (puzzle: Exclusion 2)	37 nM	–	–	–	–	–
AAUAACAGAGGAUAUACUGUUUUAUGUGUUUAUUGUUUUGAACAUGAGGAUCACCCAUGUAGAAGGCUGAAUGA [JMF 66] (puzzle: Exclusion 2)	23 nM	–	–	–	–	–
AAUAACAGAGGAUAUACUGUUUUAUGUGUUUGUUAUUUUAAACAUGAGGAUCACCCAUGUAGAAGGCUGAAUAA [JMF 15] (puzzle: Exclusion 2)	19.8 nM	–	–	–	–	–
AAUAACAGAGGAUAUACUGUUUUAUGUGUUUGUUAUUUUGAACAUGAGGAUCACCCAUGUAGAAGGCUGAAUGA [JMF 64] (puzzle: Exclusion 2)	27.1 nM	–	–	–	–	–
AAUAACAGAGGAUAUACUGUUUUAUGUGUUUGUUGUUUUAAACAUGAGGAUCACCCAUGUAGAAGGCUGAAUAA [JMF 19] (puzzle: Exclusion 2)	18.4 nM	–	–	–	–	–
AAUAACAUGUUGAUCAAAUACAUGAGGAUCACCCAUGUAUGCUUUUUGUUCGAUAAGAUCAACUAAUAAUAAUAAUA [StovNew/1-C] (Eterna round: R97, puzzle: Sensor, turn-off variant 1)	–	12.2 nM	12.6 nM	–	–	–
AAUAAGCGAGGAUAUACACCCGGAAAACGGGAACGGGCGAGACAUGAGGAUCACCCAUGUAGAAGGCGCGUCAA [Sogexe] (Eterna round: R97, puzzle: Exclusion 2)	–	28 nM	77.9 nM	–	–	–
AAUAAGCUAGGAUAUACAUGAGGAUCACCCAUGUAUGACGAUACAGAAUCUGGCCCGAGUAGAAGGAGCAAACU [EX3 B.7] (Eterna round: R97, puzzle: Exclusion 3)	–	23.2 nM	17.4 nM	–	–	–
AAUAAGCUAGGAUAUACAUGAGGAUCACCCAUGUGAGGGCACCGCCGGCGCGGGCCCGGUAGAAGGAGUCAUAA [Exc;s3-V] (puzzle: Exclusion 3)	34.3 nM	–	–	22.1 nM	27.7 nM	–
AAUAAUAAGGAGGAUAUCGUAUGCGAAAGCAUACGAGAAGGCCUAACAUGAGGAUCACCCAUGUUCCUCAAUAA [Mat - Exclusion 6 - Eli Mod - D55] (puzzle: Exclusion 6)	254 nM	–	–	659 nM	259 nM	–
AAUAAUAAUGUCAGGAUAUCUAGAGCUGCGGCUCUAGAGAAGGGACAUGAGGAUCACCCAUGUCACUCAAUAAU [BmEx4/3-C5] (Eterna round: R97, puzzle: Brourd's mod of Exclusion 4)	–	22 nM	15.1 nM	–	–	–
AAUAAUCAUGUAGGAUAUGCGUGGCAAAGCUAUGCAGAAGGACAUGAGGAUCACCCAUGUUCUAGCGUCUGAAAACAGAUGCUA [Mat - Exclusion NG 1 - Mod of JL - D83] (Eterna round: R96, puzzle: Exclusion NG 1)	–	451 nM	44.3 nM	–	–	29.5 nM
AAUAAUUGUGACUUGGGUGACAUGAGGAUCACCCAUGUCACAAGCUUGUUGCUCGCCUUAUAAUUAACCCAUGUCAC [LRO Sensor-off var1-26 mod of Stov1-13-A1 by Brourd] (Eterna round: R97, puzzle: Sensor, turn-off variant 1)	–	70.5 nM	80.6 nM	–	–	–
AAUAAUUGUGACUUGGGUGACAUGAGGAUCACCCAUGUCACAAGCUUGUUGCUCGUCUUAUAAUUAACCCAUGUCAC [LRO Sensor-off var1-25 mod of Stov1-13-A1 by Brourd] (Eterna round: R97, puzzle: Sensor, turn-off variant 1)	–	48.1 nM	40.9 nM	–	–	–
AAUACAAGCAAGAUCCUAAACAUGAGGAUCACCCAUGUGCUCGUCUUAUAAAGUACUAUCACGAAAGUGAUAGUACA [Sensor 3, v1 - 63] (puzzle: Sensor v3, turn-off variant 1)	438 nM	–	–	213 nM	234 nM	–
AAUACAAGUAAGAUCCUAAACAUGAGGAUCACCCAUGUGCUCGUCUUAUAAAGUACUAUCACGAAAGUGAUAGUACA [Sensor 3, v1 - 66] (puzzle: Sensor v3, turn-off variant 1)	314 nM	–	–	48.7 nM	37.5 nM	–

Sequence	apparent KD of MS2 coat protein [1]	apparent KD of MS2 coat protein (input ligand: FMN 200 uM)	apparent KD of MS2 coat protein (input ligand: none)	apparent KD of MS2 coat protein [2]	apparent KD of MS2 coat protein [3]	apparent KD of MS2 coat protein [4]
AAUACUAACAGCUGACUGUUAGUACUGUAGGUUUGUGUUACAUGAGGAUCACCCAUGUCCUCAUAGGCUCGUCUUGU [Mat - Sensor v3 - Turn-off var 2 - D98] (puzzle: Sensor v3, turn-off variant 2)	322 nM	–	–	586 nM	697 nM	–
AAUAUAAGCAAGAUCCUAAACAUGAGGAUCACCCAUGUGCUCGUCUUAUAAAGUACUAUCACGAAAGUGAUAGUACA [Sensor 3, v1 - 65] (puzzle: Sensor v3, turn-off variant 1)	398 nM	–	–	111 nM	127 nM	–
AAUAUGUGAGGAUAUUAGUUGUACGUCAAUAGACGUAUAAGUGAGAAGGCACAUGAGGAUCACCCAUGUUCCUG [Omei Ex4 Mod of Mat's R95 mod of Omei v3] (Eterna round: R97, puzzle: Exclusion 4)	–	98.2 nM	23.7 nM	–	–	–
AAUAUUUUAGGAUAUGGCGGAAUAGACAUGAGGAUCACCCAUGUUAGAGGCGUGGUGAAGUUAGAAGGGAGGUGUU [Eternabot (L1) Solution 6] (Eterna round: R97, puzzle: Exclusion 5)	–	60 nM	113 nM	–	–	–
AAUCAGCGAGGAUAUACAGAUUCUGGGUGCGGCUCGGCGAGACAUGAGGAUCACCCAUGUAGAAGGUGCUAGCC [Teoredre] (puzzle: Exclusion 2)	29.2 nM	–	–	–	–	–
AAUCAGUGUGUGAGGAUAUUGGUGGAAUGACUUAUUAAGAAGGCACAUGAGGAUCACCCAUGUGGGAAGUCACG [JR_BMEx4_Sub016] (Eterna round: R97, puzzle: Brourd's mod of Exclusion 4)	–	11.6 nM	12.8 nM	–	–	–
AAUCAUGAACGAGCUUUUUACAUGAGGAUCACCCAUGUCCUCUGCUCGUCUUGUCUUGGGCUUUUUUUGGGUUCGGG [-22.4, -44.7 kcal, A 16%] (Eterna round: R97, puzzle: Sensor, turn-off variant 1)	–	320 nM	355 nM	–	–	–
AAUCCACAUGAGGAUCACCCAUGUCAGGAUAUCGCGCGCGCGUUUUCGGUCUUUCGCGCGAGAAGGGACGGCUG (puzzle: Exclusion 1)	16.3 nM	–	–	–	–	–
AAUCCACAUGAGGAUCACCCAUGUGAGGAUAUGAUACUAUGUACUUCGGUACAUAGUAUCAGAAGGCACGGAUC [Ex1-3: 53] (puzzle: Exclusion 1)	29.9 nM	–	–	–	–	–
AAUGAUUGACGAGGAUAUUGUGGUAGAUCACGACGAGAAGGCGUUUGUCACAUGAGGAUCACCCAUGUGAGCCUUGUGGAUAGA [Ex NG1 #75] (Eterna round: R96, puzzle: Exclusion NG 1)	–	160 nM	30.9 nM	–	–	20.1 nM
AAUGAUUGACGAGGAUAUUGUGUUAGAUCACGACGAGAAGGCGUCUGUCACAUGAGGAUCACCCAUGUGAGCCUGGUGGAUAGA [Ex NG1 #78] (Eterna round: R96, puzzle: Exclusion NG 1)	–	82.6 nM	50 nM	–	–	35.1 nM
AAUGAUUGACGAGGAUAUUGUGUUAGAUCACGACGAGAAGGCGUUUGUCACAUGAGGAUCACCCAUGUGAGCCUUGUGGAUAGA [Ex NG1 #76] (Eterna round: R96, puzzle: Exclusion NG 1)	–	56.6 nM	21.5 nM	–	–	15.6 nM
AAUGCUGGUGUGAGGAUAUCAGCUGAAGAACAGAAUGAGAAGGCACAUGAGGAUCACCCAUGUAAAAGAAUAAA [Atbelaqu] (Eterna round: R97, puzzle: Brourd's mod of Exclusion 4)	–	35.9 nM	25.6 nM	–	–	–
AAUGUCUGAGGAUAUCGAUUAGUGUACAUGAGGAUCACCCAUGUUUUUAUUUGUAUAUUACGAGAAGGCAGUGGAA [JR_E5_Sub087] (puzzle: Exclusion 5)	19.1 nM	–	–	20.6 nM	17.2 nM	–
AAUGUGUAAGGAUAUCCGAAAAGCGAGCGAAAGCGAGCGAAGGAGAAGGUACAUGAGGAUCACCCAUGUAAGGG [AK-MS2ROC-r4-exclusion4-11.6] (Eterna round: R97, puzzle: Exclusion 4)	–	71.5 nM	530 nM	–	–	–
AAUUAACAUGUAGGAUAUCUGCACGAUUAGUGCAGAGAAGGACAUGAGGAUCACCCAUGUAUAGCGACUUCGGUCGCAAUAAUU [ENG1/2-B1] (Eterna round: R96, puzzle: Exclusion NG 1)	–	161 nM	80.6 nM	–	–	69.5 nM
